For experiment [1], the target named is recombinant hAα392-610 fragment corresponding to the full-length human fibrinogen αC-domain (human). The experiment in a line: AUC.
For experiment [2] the target is unchanged. The experiment in a line: SEC.
The target of experiment [3] is recombinant bAα374-568 fragment corresponding to the full-length bovine fibrinogen αC-domain (bovine). Description: AUC.
Experiment [4] shares this target. Description: SEC.
Experiment [5] deals with recombinant human hAα425-503 fragment, truncated variant of the human fibrinogen αC-domain (human). The experiment in a line: AUC.
The target is the same in experiment [6]. Description: SEC.

Several values for one entry are separate records, joined by “and”; a condition that tells them apart may be missing. Identical values can stand only once.

With “recombinant hAα392-610 fragment corresponding to the full-length human fibrinogen αC-domain (domain or fragment)”, in experiment [1], the Ka was found to be 83200 M⁻¹, the equilibrium dissociation constant (Kd) stood at 12 µM and the stoichiometry N was 11.3. In experiment [2], the oligomers (%) at 1.9 mg/mL, 0.15 M NaCl was 15.4%; the oligomers (%) at 3.8 mg/mL, 0.15 M NaCl worked out at 32%; the oligomers (%) at 4.0 mg/mL, 2.0 M NaCl was 58.5%.

On to “recombinant bAα374-568 fragment corresponding to the full-length bovine fibrinogen αC-domain (domain or fragment)”, for which, in experiment [3], the Ka was 26100 M⁻¹ and the Kd worked out at 38.3 µM. For the same substance, in experiment [4], the oligomers (%) at 1.8 mg/mL, 0.15 M NaCl is 9.5%; the oligomers (%) at 3.7 mg/mL, 0.15 M NaCl turned out to be 27.2%; the oligomers (%) at 3.8 mg/mL, 2.0 M NaCl is 54.4%.

Take “recombinant human hAα425-503 fragment, truncated variant of the human fibrinogen αC-domain (domain or fragment)”: the Kd in experiment [5] was determined as 1140 µM. Moreover, in experiment [6], the oligomers (%) at 1.6 mg/mL, 2.0 M NaCl came to 43.6%; the oligomers (%) at 3.2 mg/mL, 0.15 M NaCl came out at 1.7%; the oligomers (%) at 3.2 mg/mL, 1.0 M NaCl came to 26.2%; the oligomers (%) at 6.3 mg/mL, 0.15 M NaCl came out at 6.6%. Besides, the stoichiometry N in experiment [6] is 5 and 6.

These data come from paper PMC2812052.
